B1: bispecific endoglinxCD28 antibody in the IgGsc format, BiCo variant Hc-L (bispecific antibody)
heavy: QVQLVQSGAEVKKPGASVKVSCKASGYTFTSYWMHWVRQAPGQGLEWIGNIYPGSGSTFYDEKFKGRATLTVDTSISTAYMELSRLRSDDTAVYYCTRRNYVTGFDYWGQGTTVTVSSASTKGPSVFPLAPSSKSTSGGTAALGCLVKDYFPEPVTVSWNSGALTSGVHTFPAVLQSSGLYSLSSVVTVPSSSLGTQTYICNVNHKPSNTKVDKKVEPKSCDKTHTCPPCPAPPVAGPSVFLFPPKPKDTLMISRTPEVTCVVVGVSHEDPEVKFNWYVDGVEVHNAKTKPREEQYNSTYRVVSVLTVLHQDWLNGKEYKCKVSNKQLPSPIEKTISKAKGQPREPQVYTLPPSRDELTKNQVSLTCLVKGFYPSDIAVEWESNGQPENNYKTTPPVLDSDGSFFLYSKLTVDKSRWQQGNVFSCSVMHEALHNHYTQKSLSLSPGKASQVQLVESGGGVVQPGRSLRLSCAASGFSLSDYGVHWVRQAPGKGLEWLGVIWAGGGTNYNSALMSRKTISKDNSKNTVYLQMNSLRAEDTAVYYCARDKGYSYYYSMDYWGQGTTVTVSSGGGGSGGGGSGGGGSDIQMTQSPSTLSASVGDRVTIICRASESVEYYVTSLMQWYQQKPGKAPKLLIFAASNVESGVPSRFSGSGSGTEFTLTISSLQPDDFATYYCQQSRKVPYTFGQGTKLEIKR
light: DIQLTQSPSFLSASVGDRVTITCKSSQSVLYSSNQKNYLAWYQQKPGKAPKLLIYWASTRESGVPSRFSGSGSGTEFTLTISSLQPEDFATYYCHQYLSSYTFGQGTKLEIKRTVAAPSVFIFPPSDEQLKSGTASVVCLLNNFYPREAKVQWKVDNALQSGNSQESVTEQDSKDSTYSLSSTLTLSKADYEKHKVYACEVTHQGLSSPVTKSFNRGEC
notes: Humanized endoglin IgG (K-ro22-2 / K-ro22-6), FcKO, with the CD28 scFv (9.3-8, Vh-Vl) fused to the C-terminus of the heavy chain without the long linker
B2: bispecific endoglinxCD28 antibody in the IgGsc format, BiCo variant Lc-L (bispecific antibody)
heavy: QVQLVQSGAEVKKPGASVKVSCKASGYTFTSYWMHWVRQAPGQGLEWIGNIYPGSGSTFYDEKFKGRATLTVDTSISTAYMELSRLRSDDTAVYYCTRRNYVTGFDYWGQGTTVTVSSASTKGPSVFPLAPSSKSTSGGTAALGCLVKDYFPEPVTVSWNSGALTSGVHTFPAVLQSSGLYSLSSVVTVPSSSLGTQTYICNVNHKPSNTKVDKKVEPKSCDKTHTCPPCPAPPVAGPSVFLFPPKPKDTLMISRTPEVTCVVVGVSHEDPEVKFNWYVDGVEVHNAKTKPREEQYNSTYRVVSVLTVLHQDWLNGKEYKCKVSNKQLPSPIEKTISKAKGQPREPQVYTLPPSRDELTKNQVSLTCLVKGFYPSDIAVEWESNGQPENNYKTTPPVLDSDGSFFLYSKLTVDKSRWQQGNVFSCSVMHEALHNHYTQKSLSLSPGK
light: DIQLTQSPSFLSASVGDRVTITCKSSQSVLYSSNQKNYLAWYQQKPGKAPKLLIYWASTRESGVPSRFSGSGSGTEFTLTISSLQPEDFATYYCHQYLSSYTFGQGTKLEIKRTVAAPSVFIFPPSDEQLKSGTASVVCLLNNFYPREAKVQWKVDNALQSGNSQESVTEQDSKDSTYSLSSTLTLSKADYEKHKVYACEVTHQGLSSPVTKSFNRGECASQVQLVESGGGVVQPGRSLRLSCAASGFSLSDYGVHWVRQAPGKGLEWLGVIWAGGGTNYNSALMSRKTISKDNSKNTVYLQMNSLRAEDTAVYYCARDKGYSYYYSMDYWGQGTTVTVSSGGGGSGGGGSGGGGSDIQMTQSPSTLSASVGDRVTIICRASESVEYYVTSLMQWYQQKPGKAPKLLIFAASNVESGVPSRFSGSGSGTEFTLTISSLQPDDFATYYCQQSRKVPYTFGQGTKLEIKR
notes: Humanized endoglin IgG, FcKO heavy chain, with the CD28 scFv (9.3-8, Vh-Vl) fused to the C-terminus of the kappa light chain without the long linker
B3: bispecific endoglinxCD28 antibody in the IgGsc format, BiCo variant Lc+L (bispecific antibody)
heavy: B2 heavy
light: DIQLTQSPSFLSASVGDRVTITCKSSQSVLYSSNQKNYLAWYQQKPGKAPKLLIYWASTRESGVPSRFSGSGSGTEFTLTISSLQPEDFATYYCHQYLSSYTFGQGTKLEIKRTVAAPSVFIFPPSDEQLKSGTASVVCLLNNFYPREAKVQWKVDNALQSGNSQESVTEQDSKDSTYSLSSTLTLSKADYEKHKVYACEVTHQGLSSPVTKSFNRGECASGGGGSGGGGSGGGGSQVQLVESGGGVVQPGRSLRLSCAASGFSLSDYGVHWVRQAPGKGLEWLGVIWAGGGTNYNSALMSRKTISKDNSKNTVYLQMNSLRAEDTAVYYCARDKGYSYYYSMDYWGQGTTVTVSSGGGGSGGGGSGGGGSDIQMTQSPSTLSASVGDRVTIICRASESVEYYVTSLMQWYQQKPGKAPKLLIFAASNVESGVPSRFSGSGSGTEFTLTISSLQPDDFATYYCQQSRKVPYTFGQGTKLEIKR
notes: Humanized endoglin IgG, FcKO heavy chain, with the CD28 scFv (9.3-8, Vh-Vl) fused to the C-terminus of the kappa light chain through a (GGGGS)3 linker; also called BiCo-1; Bico1

Target: T1, CD28 expressed on human CD4+ and CD8+ T cells (human, UniProt P10747 19-220)
T1 construct: whole, on cells; also called T-cell-specific surface glycoprotein CD28
Assay: flow cytometry after incubation of PBMC with the constructs
Experimental: Binding of the variants to normal human T cells was determined after incubation of PBMC with the respective constructs and subsequent analysis by flow cytometry

Binding result, binds:
B1
B2
B3

From patent publication US20230406961A1 (DEUTSCHES KREBSFORSCHUNGSZENTRUM STIFTUNG DES FFENTLICHEN …, published 2023)
